Experimental data from publication PMC12597101.

Test system: 151AmF-GFP (azide-exposed GFP, protein part of RGG/DGG) (synthetic (codon-optimized GFP, expressed in E. coli NiCo21(DE3)))
Assay: EMSA (SDS-PAGE gel shift)
Details: clicked to AmF-GFP, 59 pmol GFP + 59 pmol guide, SPAAC at 4 C for 1.5 h, then equal volume of target, 20 min at room temperature, 15% SDS-PAGE, protein stored in 50 mM HEPES …

Sequence	binding signal (DGG (covalent DNA guide), DBCO on guide DNA)	binding signal (RGG (covalent RNA guide), DBCO on guide RNA)
TAACCCTAACCCTAACCCTAACCCTA / GCUAGAUCCGUAGGGUUAGGGUUAGGGUUAGGGUUAACCUCCGACC [Tel26-DBCO-DNA guide + Target RNA [Tel26]]	86 % bound	
UAACCCUAACCCUAACCCUAACCCUA / GCUAGAUCCGUAGGGUUAGGGUUAGGGUUAGGGUUAACCUCCGACC [Tel26-DBCO-RNA guide + Target RNA [Tel26]]		88 % bound
